Measured values reported in patent publication US20220073608A1.

Tests used:
[1] = target: T1, biotinylated hSEMA4D ECD-His (human) (UniProt Q92854); experiment: FACS, blocking of biotinylated hSEMA4D ECD-His binding to 293F hPlexin B1 cells; Ab 0.00427 nM
T1 sequence (chain, biotinylated with Biotin-X-X-NHS at a molar ratio of 8,1; sites not stated): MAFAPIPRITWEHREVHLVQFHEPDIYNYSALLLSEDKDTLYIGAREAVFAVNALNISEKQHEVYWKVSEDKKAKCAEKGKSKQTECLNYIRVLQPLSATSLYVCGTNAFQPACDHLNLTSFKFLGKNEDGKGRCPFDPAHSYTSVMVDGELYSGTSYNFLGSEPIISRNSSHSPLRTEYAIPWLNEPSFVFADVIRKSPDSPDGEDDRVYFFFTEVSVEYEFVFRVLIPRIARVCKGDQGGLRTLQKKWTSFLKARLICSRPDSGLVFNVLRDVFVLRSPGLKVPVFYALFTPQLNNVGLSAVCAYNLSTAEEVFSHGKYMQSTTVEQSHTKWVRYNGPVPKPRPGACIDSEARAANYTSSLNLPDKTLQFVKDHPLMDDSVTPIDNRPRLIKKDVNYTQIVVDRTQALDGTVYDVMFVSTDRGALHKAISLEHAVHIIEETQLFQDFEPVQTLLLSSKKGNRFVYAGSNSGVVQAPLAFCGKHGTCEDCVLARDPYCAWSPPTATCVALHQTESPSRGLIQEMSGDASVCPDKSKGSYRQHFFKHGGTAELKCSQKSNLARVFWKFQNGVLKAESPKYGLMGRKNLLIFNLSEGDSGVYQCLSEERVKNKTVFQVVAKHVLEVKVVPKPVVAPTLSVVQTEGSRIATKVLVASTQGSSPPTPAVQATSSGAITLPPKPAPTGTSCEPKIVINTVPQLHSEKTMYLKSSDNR

[2] = target: monkey SEMA4D, full length, on CHO-K1 cells (CHO-K1 cSEMA4D) (monkey); experiment: FACS, CHO-K1 cSEMA4D cells; Ab 0.000853 nM
[3] = target: monkey SEMA4D, full length, on CHO-K1 cells (CHO-K1 cSEMA4D) (monkey); experiment: FACS, CHO-K1 cSEMA4D cells; Ab 13.3 nM
[4] = target: T1, biotinylated hSEMA4D ECD-His (human); experiment: FACS, blocking of biotinylated hSEMA4D ECD-His binding to 293F hPlexin B1 cells; Ab 13.3 nM
[5] = target: T2, human SEMA4D, full length, on CHO-K1 cells (CHO-K1 hSEMA4D) (human) (UniProt Q92854); experiment: FACS, CHO-K1 hSEMA4D cells; Ab 0.107 nM
T2 sequence (looked up): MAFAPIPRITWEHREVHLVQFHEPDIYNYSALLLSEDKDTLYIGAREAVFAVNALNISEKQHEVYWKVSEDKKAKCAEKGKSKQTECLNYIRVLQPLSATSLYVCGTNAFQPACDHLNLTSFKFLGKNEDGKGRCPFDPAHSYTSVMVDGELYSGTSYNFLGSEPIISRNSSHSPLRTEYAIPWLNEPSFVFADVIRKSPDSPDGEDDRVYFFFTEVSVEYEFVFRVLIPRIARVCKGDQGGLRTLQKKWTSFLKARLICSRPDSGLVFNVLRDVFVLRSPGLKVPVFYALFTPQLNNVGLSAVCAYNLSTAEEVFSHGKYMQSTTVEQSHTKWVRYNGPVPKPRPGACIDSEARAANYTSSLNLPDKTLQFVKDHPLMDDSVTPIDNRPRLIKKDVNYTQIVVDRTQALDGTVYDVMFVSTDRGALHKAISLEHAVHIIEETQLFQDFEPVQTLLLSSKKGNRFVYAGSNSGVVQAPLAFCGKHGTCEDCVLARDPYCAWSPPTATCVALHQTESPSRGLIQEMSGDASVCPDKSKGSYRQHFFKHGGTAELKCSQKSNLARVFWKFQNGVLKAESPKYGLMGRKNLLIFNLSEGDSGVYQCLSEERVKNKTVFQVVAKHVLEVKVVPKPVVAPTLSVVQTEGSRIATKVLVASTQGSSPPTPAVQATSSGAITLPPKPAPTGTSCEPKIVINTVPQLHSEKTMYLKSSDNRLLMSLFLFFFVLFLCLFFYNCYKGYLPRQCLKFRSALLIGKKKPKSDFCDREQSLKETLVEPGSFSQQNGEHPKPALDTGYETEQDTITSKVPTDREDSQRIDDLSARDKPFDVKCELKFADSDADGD

[6] = target: T1, biotinylated hSEMA4D ECD-His (human); experiment: FACS, blocking of biotinylated hSEMA4D ECD-His binding to 293F hPlexin B1 cells; Ab 2.67 nM
[7] = target: T1, biotinylated hSEMA4D ECD-His (human); experiment: FACS, blocking of biotinylated hSEMA4D ECD-His binding to 293F hPlexin B1 cells; Ab 66.7 nM
[8] = target: T2, human SEMA4D, full length, on CHO-K1 cells (CHO-K1 hSEMA4D) (human); experiment: FACS, CHO-K1 hSEMA4D cells; Ab 0.0213 nM
[9] = target: T1, biotinylated hSEMA4D ECD-His (human); experiment: FACS, blocking of biotinylated hSEMA4D ECD-His binding to 293F hPlexin B1 cells; Ab 0.534 nM
[10] = target: T2, human SEMA4D, full length, on CHO-K1 cells (CHO-K1 hSEMA4D) (human); experiment: FACS, CHO-K1 hSEMA4D cells; Ab 0.534 nM
[11] = target: monkey SEMA4D, full length, on CHO-K1 cells (CHO-K1 cSEMA4D) (monkey); experiment: FACS, CHO-K1 cSEMA4D cells; Ab 0.0213 nM
[12] = target: monkey SEMA4D, full length, on CHO-K1 cells (CHO-K1 cSEMA4D) (monkey); experiment: FACS, CHO-K1 cSEMA4D cells; Ab 0.107 nM
[13] = target: mouse SEMA4D, full length, on CHO-K1 cells (CHO-K1 mSEMA4D) (mouse) (UniProt O09126); experiment: FACS, CHO-K1 mSEMA4D cells; Ab 0.107 nM
[14] = target: mouse SEMA4D, full length, on CHO-K1 cells (CHO-K1 mSEMA4D) (mouse) (UniProt O09126); experiment: FACS, CHO-K1 mSEMA4D cells; Ab 0.000853 nM
[15] = target: monkey SEMA4D, full length, on CHO-K1 cells (CHO-K1 cSEMA4D) (monkey); experiment: FACS, CHO-K1 cSEMA4D cells; Ab 0.534 nM

| MFI (residual ligand binding) [1] | MFI [2] | MFI [3] | MFI (residual ligand binding) [4] | MFI [5] | MFI (residual ligand binding) [6] | MFI (residual ligand binding) [7] | MFI [8] | MFI (residual ligand binding) [9] | MFI [10] | MFI [11] | MFI [12] | MFI [13] | MFI [14] | MFI [15] | Substance |
| --- | --- | --- | --- | --- | --- | --- | --- | --- | --- | --- | --- | --- | --- | --- | --- |
| 486 | 22.9 | 65.6 | 474 | 36.1 | 470 | 471 | 35.8 | 472 | 36.5 | 23.1 | 25.4 | 29.8 | 29.8 | 24.9 | Mouse IgG control (antibody) |
| 378 | 31.6 | 86.7 | 331 | 38 | 338 | 321 | 38.2 | 341 | 37.4 | 31.6 | 31.6 | 24.1 | 25 | 32.1 | Human IgG control (antibody) |
